Experimental data taken from article PMC9457993.
Several values for one entry are separate records, joined by “and”; a condition that tells them apart may be missing. Equal entries are not always repeated.

Assays:
Liraglutide [1] = test: AF4-MALS (asymmetrical flow field-flow fractionation with UV, fluorescence, dRI and MALS detection); thermally stressed, aggregated API (APIaggr), 3 mg/mL in formulation, 60 uL injected; formulation buffer as mobile phase
Liraglutide [2] = test: as above; remark: listed apart in the source
Liraglutide [3] = test: SEC-MALS; HPLC-UV-dRI-MALS, Shodex Protein KW-802.5; mobile phase 1 g/L L-Arginine: Acetonitrile: acetic acid, 35:50:15 (results say 30% acetonitrile), isocratic 0.5 mL/min; Liraglutide FDF Lot #33387-18 and Saxenda Lot #JP54138, 6 mg/mL
Liraglutide [4] = test: AF4-MALS (asymmetrical flow field-flow fractionation with UV, fluorescence, dRI and MALS detection); Liraglutide 6 mg/mL (API resuspended in water or formulation, FDF, Victoza, Saxenda), 30 uL injected; formulation buffer (disodium phosphate dihydrate, propylene glycol, phenol, water) as mobile phase; PES membrane 1 kDa cutoff; molar mass by MALS with dRI; n = 3

Liraglutide (peptide)
stoichiometry N (Liraglutide [1]): > 20 units
stoichiometry N (Liraglutide [2]): 20 units
relative abundance of monomer (Liraglutide [3]): > 99.5%
stoichiometry N (Liraglutide [3]): 2 and 4
stoichiometry N (Liraglutide [4]): 5.2 units
